B1: Mothers against decapentaplegic homolog 4 (Homo sapiens), Q13485 (parent)
chain: MDNMSITNTPTSNDACLSIVHSLMCHRQGGESETFAKRAIESLVKKLKEKKDELDSLITAITTNGAHPSKCVTIQRTLDGRLQVAGRKGFPHVIYARLWRWPDLHKNELKHVKYCQYAFDLKCDSVCVNPYHYERVVSPGIDLSGLTLQSNAPSSMMVKDEYVHDFEGQPSLSTEGHSIQTIQHPPSNRASTETYSTPALLAPSESNATSTANFPNIPVASTSQPASILGGSHSEGLLQIASGPQPGQQQNGFTGQPATYHHNSTTTWTGSRTAPYTPNLPHHQNGHLQHHPPMPPHPGHYWPVHNELAFQPPISNHPAPEYWCSIAYFEMDVQVGETFKVPSSCPIVTVDGYVDPSGGDRFCLGQLSNVHRTEAIERARLHIGKGVQLECKGEGDVWVRCLSDHAVFVQSYYLDREAGRAPGDAVHKIYPSAYIKVFDLRQCHRQMQQQAATAQAAAAAQAAAVAGNIPGPGSVGGIAPAISLSAAAGIGVDDLRRLCILRMSFVKGWGPDYPRQSIKETPCWIEIHLHRALQLLDEVLHTMPIADPQPLD
partner: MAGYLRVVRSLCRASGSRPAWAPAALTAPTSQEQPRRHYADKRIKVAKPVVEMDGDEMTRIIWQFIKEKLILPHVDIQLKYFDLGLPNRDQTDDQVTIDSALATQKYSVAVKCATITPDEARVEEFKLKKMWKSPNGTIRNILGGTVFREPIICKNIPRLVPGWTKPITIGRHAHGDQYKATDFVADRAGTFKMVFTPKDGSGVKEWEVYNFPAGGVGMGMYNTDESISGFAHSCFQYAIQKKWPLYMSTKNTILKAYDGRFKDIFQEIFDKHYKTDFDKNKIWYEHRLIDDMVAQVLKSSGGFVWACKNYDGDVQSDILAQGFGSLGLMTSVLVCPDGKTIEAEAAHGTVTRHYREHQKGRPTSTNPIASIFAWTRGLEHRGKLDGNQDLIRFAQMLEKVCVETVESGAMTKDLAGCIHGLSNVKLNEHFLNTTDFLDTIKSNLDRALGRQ
B2: Mothers against decapentaplegic homolog 4 (Homo sapiens), Q13485 (parent)
chain: B1 chain
partner: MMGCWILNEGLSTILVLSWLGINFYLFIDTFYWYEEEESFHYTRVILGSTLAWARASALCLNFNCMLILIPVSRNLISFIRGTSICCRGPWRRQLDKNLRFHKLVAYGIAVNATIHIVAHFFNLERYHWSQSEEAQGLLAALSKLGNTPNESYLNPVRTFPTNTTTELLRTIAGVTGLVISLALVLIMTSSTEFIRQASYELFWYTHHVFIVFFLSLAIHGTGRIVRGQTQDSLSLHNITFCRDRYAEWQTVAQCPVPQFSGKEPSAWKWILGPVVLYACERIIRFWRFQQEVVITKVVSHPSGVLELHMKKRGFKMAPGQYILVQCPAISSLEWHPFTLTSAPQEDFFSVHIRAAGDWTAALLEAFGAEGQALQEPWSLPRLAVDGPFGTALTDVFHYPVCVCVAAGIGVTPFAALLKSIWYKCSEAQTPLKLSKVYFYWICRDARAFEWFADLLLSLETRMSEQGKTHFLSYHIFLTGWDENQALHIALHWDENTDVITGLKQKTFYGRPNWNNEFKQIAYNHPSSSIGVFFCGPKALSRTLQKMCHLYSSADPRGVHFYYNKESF
B3: Mothers against decapentaplegic homolog 4 (Homo sapiens), Q13485 (parent)
chain: B1 chain
partner: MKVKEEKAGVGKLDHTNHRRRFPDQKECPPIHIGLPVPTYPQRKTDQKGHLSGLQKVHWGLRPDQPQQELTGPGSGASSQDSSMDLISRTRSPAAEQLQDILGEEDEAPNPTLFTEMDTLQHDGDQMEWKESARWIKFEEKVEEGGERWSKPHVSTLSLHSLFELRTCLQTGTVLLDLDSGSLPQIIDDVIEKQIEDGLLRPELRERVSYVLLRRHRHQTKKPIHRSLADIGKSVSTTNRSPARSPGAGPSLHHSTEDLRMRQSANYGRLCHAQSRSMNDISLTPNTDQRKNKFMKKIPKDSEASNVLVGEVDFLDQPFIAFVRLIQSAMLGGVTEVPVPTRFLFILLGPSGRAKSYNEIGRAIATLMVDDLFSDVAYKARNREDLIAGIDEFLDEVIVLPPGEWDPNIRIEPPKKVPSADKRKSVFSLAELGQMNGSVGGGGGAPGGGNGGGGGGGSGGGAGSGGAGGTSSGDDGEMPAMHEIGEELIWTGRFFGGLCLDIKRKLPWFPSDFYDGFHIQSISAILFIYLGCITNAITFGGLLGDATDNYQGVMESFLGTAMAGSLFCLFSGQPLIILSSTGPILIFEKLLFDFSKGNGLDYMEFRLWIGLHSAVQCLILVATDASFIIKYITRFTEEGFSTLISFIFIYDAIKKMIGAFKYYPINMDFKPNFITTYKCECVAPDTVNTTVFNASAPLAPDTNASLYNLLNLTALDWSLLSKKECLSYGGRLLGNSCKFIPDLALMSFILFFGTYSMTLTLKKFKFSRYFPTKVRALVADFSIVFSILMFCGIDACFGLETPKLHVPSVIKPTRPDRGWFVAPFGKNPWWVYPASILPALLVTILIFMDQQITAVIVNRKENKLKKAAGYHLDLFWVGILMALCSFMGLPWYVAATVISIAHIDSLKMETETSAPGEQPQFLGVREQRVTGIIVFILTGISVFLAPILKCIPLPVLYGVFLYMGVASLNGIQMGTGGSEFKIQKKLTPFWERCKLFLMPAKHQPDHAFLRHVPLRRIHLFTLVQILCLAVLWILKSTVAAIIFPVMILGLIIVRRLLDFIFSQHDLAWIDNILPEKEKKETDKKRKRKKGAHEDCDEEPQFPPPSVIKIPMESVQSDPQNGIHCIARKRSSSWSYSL
B4: Mothers against decapentaplegic homolog 4 (Homo sapiens), Q13485 (parent)
chain: B1 chain
partner: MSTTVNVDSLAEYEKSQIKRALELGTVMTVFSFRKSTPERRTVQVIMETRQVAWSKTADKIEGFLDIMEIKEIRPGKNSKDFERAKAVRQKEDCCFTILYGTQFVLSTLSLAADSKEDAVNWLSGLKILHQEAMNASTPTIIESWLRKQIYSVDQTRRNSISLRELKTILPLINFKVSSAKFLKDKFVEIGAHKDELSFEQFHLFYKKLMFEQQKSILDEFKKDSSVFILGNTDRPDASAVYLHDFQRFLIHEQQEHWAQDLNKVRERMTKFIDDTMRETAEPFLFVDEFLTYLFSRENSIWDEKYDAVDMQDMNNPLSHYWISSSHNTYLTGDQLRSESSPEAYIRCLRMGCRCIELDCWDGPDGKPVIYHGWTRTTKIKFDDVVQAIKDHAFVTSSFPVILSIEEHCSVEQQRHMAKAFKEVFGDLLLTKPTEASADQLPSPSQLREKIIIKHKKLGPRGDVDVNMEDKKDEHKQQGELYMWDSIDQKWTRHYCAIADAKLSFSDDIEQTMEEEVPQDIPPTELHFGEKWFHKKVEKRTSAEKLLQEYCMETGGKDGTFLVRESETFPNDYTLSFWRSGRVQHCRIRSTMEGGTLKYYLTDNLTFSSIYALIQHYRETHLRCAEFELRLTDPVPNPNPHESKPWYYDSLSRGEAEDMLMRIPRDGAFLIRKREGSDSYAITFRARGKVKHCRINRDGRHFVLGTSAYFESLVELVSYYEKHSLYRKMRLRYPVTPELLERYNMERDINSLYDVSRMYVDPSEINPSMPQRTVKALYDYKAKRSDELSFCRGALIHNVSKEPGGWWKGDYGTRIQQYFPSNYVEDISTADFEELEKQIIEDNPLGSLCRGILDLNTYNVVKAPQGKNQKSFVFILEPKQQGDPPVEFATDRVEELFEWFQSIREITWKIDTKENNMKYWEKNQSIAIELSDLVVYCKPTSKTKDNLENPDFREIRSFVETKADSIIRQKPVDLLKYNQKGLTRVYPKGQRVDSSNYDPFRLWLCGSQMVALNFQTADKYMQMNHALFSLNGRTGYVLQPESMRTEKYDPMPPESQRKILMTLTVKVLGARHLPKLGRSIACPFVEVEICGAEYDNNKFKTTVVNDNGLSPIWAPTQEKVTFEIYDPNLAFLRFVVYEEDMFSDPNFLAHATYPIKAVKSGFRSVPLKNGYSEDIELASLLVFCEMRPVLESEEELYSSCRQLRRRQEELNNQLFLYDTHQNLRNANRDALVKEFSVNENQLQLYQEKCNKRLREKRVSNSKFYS
B5: Mothers against decapentaplegic homolog 4 (Homo sapiens), Q13485 (parent)
chain: B1 chain
partner: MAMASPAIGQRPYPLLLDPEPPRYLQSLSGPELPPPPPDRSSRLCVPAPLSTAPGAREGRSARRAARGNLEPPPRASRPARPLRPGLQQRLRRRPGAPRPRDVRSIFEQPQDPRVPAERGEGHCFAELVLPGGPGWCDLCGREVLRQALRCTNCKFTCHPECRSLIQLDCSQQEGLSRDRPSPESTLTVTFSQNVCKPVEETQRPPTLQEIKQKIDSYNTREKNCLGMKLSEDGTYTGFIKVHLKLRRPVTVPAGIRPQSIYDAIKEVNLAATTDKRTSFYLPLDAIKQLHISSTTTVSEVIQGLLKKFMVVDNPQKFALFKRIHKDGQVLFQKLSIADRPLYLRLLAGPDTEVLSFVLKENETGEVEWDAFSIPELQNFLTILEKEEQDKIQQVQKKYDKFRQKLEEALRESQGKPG

Variants of: B1
Conditions: with idhp_human IDH2, P48735

Variant | effect of a mutation on the interaction
G386D | with no effect

Variants of: B2
Conditions: with nox3_human NOX3, Q9HBY0

Variant | effect of a mutation on the interaction
G386D | with no effect

Variants of: B2
Conditions: with nox3_human NOX3, Q9HBY0
Remark: another data set of the same source

Variant | effect of a mutation on the interaction
R361H | with no effect

Variants of: B3
Conditions: with s4a5_human SLC4A5, Q9BY07

Variant | effect of a mutation on the interaction
G386D | with no effect

Variants of: B3
Conditions: with s4a5_human SLC4A5, Q9BY07
Remark: another data set of the same source

Variant | effect of a mutation on the interaction
R361C | with no effect

Variants of: B4
Conditions: with plcg2_human PLCG2, P16885

Variant | effect of a mutation on the interaction
R361C | with no effect

Variants of: B5
Conditions: with rasf5_human RASSF5, Q8WWW0

Variant | effect of a mutation on the interaction
R361H | with no effect

Variants of: B5
Conditions: with rasf5_human RASSF5, Q8WWW0
Remark: another data set of the same source

Variant | effect of a mutation on the interaction
G386D | with no effect
